Experimental findings from patent publication US20220411523A1 (HEFEI HANKEMAB BIOTECHNOLOGY, published 2022) are described below.

Like-named read-outs stand apart in the source and are kept apart here.

Assay [1] deals with T1, human 4-1BB full length, on the cell surface (human, UniProt Q07011 24-255).
T1 construct: also called CHO-K1-hu4-1BB; WT (Human 4-1BB full length, Expi293 transient)
The experiment in a line: FACS, CHO-K1-hu4-1BB cells. (In general: A flow cytometer gives signals particle by particle.)

Assay [2] concerns the target T2, human 4-1BB (SEQ ID No.5), coated on the ELISA plate (human, UniProt Q07011 24-186, limits assumed).
T2 construct: also called CD137
The experiment in a line: ELISA, coated human 4-1BB.

The target in assay [3] is T3, monkey 4-1BB (Cy4-1BB) (SEQ ID No.6), coated on the ELISA plate (monkey, UniProt Q07011 24-186 (human entry), limits assumed).
T3 chain: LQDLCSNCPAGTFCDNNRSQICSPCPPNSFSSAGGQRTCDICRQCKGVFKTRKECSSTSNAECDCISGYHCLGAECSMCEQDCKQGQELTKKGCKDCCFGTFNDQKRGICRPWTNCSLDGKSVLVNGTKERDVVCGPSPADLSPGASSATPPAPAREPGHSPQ
The experiment in a line: ELISA, coated monkey 4-1BB. Background: ELISA stands for enzyme-linked immunosorbent assay.

The target of assay [4] is T4, monkey 4-1BB on the cell membrane surface of CHO-K1 cells (monkey, UniProt Q07011 24-255 (human entry)).
T4 construct: also called CHO-K1-cy4-1BB
T4 chain: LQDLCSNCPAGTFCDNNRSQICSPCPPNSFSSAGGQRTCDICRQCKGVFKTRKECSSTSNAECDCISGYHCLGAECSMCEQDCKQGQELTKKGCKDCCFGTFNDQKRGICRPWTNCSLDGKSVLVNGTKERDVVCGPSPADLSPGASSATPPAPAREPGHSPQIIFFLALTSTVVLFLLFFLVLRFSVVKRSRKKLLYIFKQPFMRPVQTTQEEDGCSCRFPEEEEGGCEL
The assay is described as follows: FACS, CHO-K1-cy4-1BB cells.

The target of assay [5] is T1, human 4-1BB full length, on the cell …. The experiment in a line: FACS, CHO-K1-hu4-1BB cells. This is another data set of the same source.
The target in assay [6] is T5, h4-1BB-His antigen (Acro company, product number: Q07011-1) (human, UniProt Q07011 24-186).
T5 construct: Q07011-1 is printed as a product number; not shown: His tag
T5 sequence (Q07011 24-186, one chain of several): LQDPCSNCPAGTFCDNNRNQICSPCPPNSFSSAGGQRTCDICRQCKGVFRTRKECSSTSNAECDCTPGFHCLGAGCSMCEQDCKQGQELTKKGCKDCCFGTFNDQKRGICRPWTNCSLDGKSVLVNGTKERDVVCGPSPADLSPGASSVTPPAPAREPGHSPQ
The experiment in a line: BLI (Fortebio), h4-1BB-His. (In general: Biolayer interferometry detects binding as a change in optical thickness at a sensor tip.)

In assay [7] the target is T1, human 4-1BB full length, on the cell …. The assay is described as follows: FACS competition, CHO-K1-hu4-1BB; labelled Bio-4-1BBL 2 µg/ml fixed, competitor varied.
Assay [8] shares this target. The assay is described as follows: FACS competition, CHO-K1-hu4-1BB; labelled Bio-Hanke10F4 1.5 µg/ml fixed, competitor varied.
Assay [9] shares this target. The description is as above. The source holds these as a separate data set.
Assay [10] shares this target. The experiment in a line: FACS (MFI) on cells transiently transfected with human 4-1BB WT, antibody titrated from about 0.04 to 10 µg/ml.
The target in assay [11] is T6, human 4-1BB N42R, on the cell surface (human, UniProt Q07011 24-255).
T6 construct: Point mutant of human 4-1BB on transiently transfected cells
The assay is described as follows: FACS (MFI) on cells transiently transfected with human 4-1BB N42R, antibody titrated from about 0.04 to 10 µg/ml.

In assay [12] the target is T7, human 4-1BB I132R, on the cell surface (human, UniProt Q07011 24-255).
T7 construct: Point mutant of human 4-1BB on transiently transfected cells
The experiment in a line: FACS (MFI) on cells transiently transfected with human 4-1BB I132R, antibody titrated from about 0.04 to 10 µg/ml.

Assay [13] deals with T8, human 4-1BB M101R, on the cell surface (human, UniProt Q07011 24-255).
T8 construct: Point mutant of human 4-1BB on transiently transfected cells
The experiment in a line: FACS (MFI) on cells transiently transfected with human 4-1BB M101R, antibody titrated from about 0.04 to 10 µg/ml.

T2 sequence (Q07011 24-186 limits assumed): as the sequence (Q07011 24-186, one chain of several) above

B1: HKB6 (antibody, V domains shown)
VH: QVQLKESGPGLVAPSQSLSITCTVSGFSLTTYDISWIRQPPGKGLEWLGVIWTGGGTNYNSTFMSRLSINKDNSKSQVFLKMNSLQTDDTAIYYCVRVDYWGQGTSVTVSS
VL: DVVMTQTPLSLPVSLGDQASISCRSSQSLVHSNGNTYLHWFLQKPGQSPKLLIYKVSNRFPGVPDRFSGSGSGTDFTLKISRVEAEDLGVYFCSQNTHVPWTFGGGTKLEIKR
A word on the EC50: it is the concentration giving half of the maximal effect. With B1, in assay [1], the half-maximal effective concentration (EC50) was determined as 1.8 µg/mL.

B2: Hanke10F4 (antibody, human IgG4 S228P, kappa, V domains shown)
VH: QVQLQESGPGLVKPSETLSITCTVSGSSLTSYGVHWVRQPPGKGLEGLGVIWPGGSTNYNSALMSRLTISKDNSKSQVSLKMSSLTAADTAMYYCARVTGTWYFDVWGQGTTVTVSS
VL: DIQMTQSPSSLSASLGDRVTISCSASQGISNYLNWYQQKPDGTVKLLIYYTSTLHSGVPSRFSGSGSGTDFTLTISSLQPEDVATYYCQQYSKLPWTFGGGTKLEIKR
notes: Heavy chain type IgG4, light chain kappa; Humanized from hybridoma antibody 37G10F4, transformed from scFvB60103; also called humanized anti-human 4-1BB antibody Hanke10F4; Hanke10F4 monoclonal antibody
As usually defined, the Kd is a measure of binding affinity in units of concentration. In general, koff refers to a measure of how fast the partners let go of each other. For orientation: kon means a measure of how fast the partners come together. For orientation: EC50 (read off the curve) means the concentration needed to bring the measured effect to its halfway point. In the case of B2, the 50% effective concentration (EC50) in [2] amounted to 0.0186 µg/mL. The molecule further showed an EC50 in assay [3] of 0.0267 µg/mL. The molecule further came in with a half-maximal effective concentration (EC50) in [4] of 1.81 µg/mL. The molecule further had an EC50 in assay [5] of 1.77 µg/mL. This molecule also had an EC50 in assay [1] of 1.6 µg/mL. In assay [6], this molecule registered a dissociation constant Kd of 13.9 nM, a koff of 0.00241 s⁻¹ and a kon of 173000 M⁻¹ s⁻¹. Also, in assay [7], the “FACS signal of Bio-4-1BBL at (B:A) Ratio 0.03906” value was 7700, the “FACS signal of Bio-4-1BBL at (B:A) Ratio 0.15625” value came out at 7460, the “FACS signal of Bio-4-1BBL at (B:A) Ratio 0.625” value came out at 6920 and the “FACS signal of Bio-4-1BBL at (B:A) Ratio 2.5” value came to 5860. In addition, in assay [7], the “FACS signal of Bio-4-1BBL at (B:A) Ratio 10” value worked out at 4310 and the “FACS signal of Bio-4-1BBL at (B:A) Ratio 40” value was determined as 3510. In [8], the “FACS signal of Bio-Hanke10F4 at (B:A) Ratio 0.058593” value came out at 7260, the “FACS signal of Bio-Hanke10F4 at (B:A) Ratio 0.23437” value was 6840, the “FACS signal of Bio-Hanke10F4 at (B:A) Ratio 0.9375” value turned out to be 5000 and the “FACS signal of Bio-Hanke10F4 at (B:A) Ratio 3.75” value turned out to be 1740. In assay [8], the “FACS signal of Bio-Hanke10F4 at (B:A) Ratio 15” value came out at 635 and the “FACS signal of Bio-Hanke10F4 at (B:A) Ratio 60” value came to 230. For the same molecule, in [9], the “FACS signal of Bio-Hanke10F4 at (B:A) Ratio 0.05859375” value amounted to 7260, the “FACS signal of Bio-Hanke10F4 at (B:A) Ratio 0.234375” value is 6840, the “FACS signal of Bio-Hanke10F4 at (B:A) Ratio 0.9375” value was 5000 and the “FACS signal of Bio-Hanke10F4 at (B:A) Ratio 3.75” value is 1740. Besides, in assay [9], the “FACS signal of Bio-Hanke10F4 at (B:A) Ratio 15” value stood at 635 and the “FACS signal of Bio-Hanke10F4 at (B:A) Ratio 60” value worked out at 230. The “EC50 (read off the curve)” value in assay [10] is about 0.7 µg/mL. In addition, the “EC50 (read off the curve)” value in [11] is about 0.7 µg/mL. The “EC50 (read off the curve)” value in assay [12] was about 0.7 µg/mL. Also, the “EC50 (read off the curve)” value in [13] is about 0.7 µg/mL.
